Reference: the nanobody polyreactivity screen of Harvey et al. (2022)

Assay: yeast display, Sf9 membrane polyspecificity reagent, FACS + sequencing; frameworks hold sequencing errors
Outline: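 Using colony PCR, genes from sorted yeast display clones were amplified, then sequenced on MiSeq at 2 × 250 and filtered by CDR length. The clones had been stained with 10% biotinylated, detergent-solubilized Sf9 membrane reagent for 1 hour at 4 °C and sorted by FACS into low and high (top ~1%) gates on anti-HA and streptavidin fluorescence. Polyreactivity labels come from the gate of origin.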

| Sequence | polyreactivity (PSR sort gate) |
| --- | --- |
| QDQHVESGGGLVQAGGSLRLSCAASGILYNYYAMGWYRQAHGKERELVAAISASGGSTYYADSVKGRFTISRDNAKNTVYLQMYSLKPEDTAVYYCNAAVLYRQYGRGDYLGQGTQVTVSS | low polyreactivity |
| QVQLVESGGGLVQAGGSLRLSCAASGIIFRPYAMGWYRQAPGKERELVAAITWSGTSTYYADSVKGRFTISRDNAKNTVYLQMNSLKPEDTAVYYCAATWSYGVSWYEYWGQGTQVTVSS | high polyreactivity |
| QLQLVESGGGLVQAGGSLRLSCAASGRTFVSIALGWYRQAPGKERELFAGINWTDDSTYYADSVKGRFTISRDNAKHSVYLQMNCLKPEDTAVYYCAADQQDGLWDYQDWYDYWGPGTQVTVSS | low polyreactivity |
| QVQLVESGVGLVQAVGSLRLSCAASGSTFYYYAMGWYRQAPGKERELVAAISWSGAYTFYSDSVKGRFTISRDNAKNTVYLQMNSLKPEDTAVYYCAARYYGQPQYQPLYYWGQGTQVTVSS | high polyreactivity |
| QVQLGESGRGLVQEGGSLGLICAASGGIFKYNAMGWYRQAPGKERELVAAIRSTGSTYADSVKGRFTISRDNAKNTVYLQMNSLKPEDTAVYYCAAQYWRRKKYYYWGQGTQVTVSS | high polyreactivity |
| QVQLVESGGGLVQAGGSLRLSCAASGLIRDGKVMGWYIQAPGKERELVAAINTSGGSTYYADSVKGRFTISRDNAKNTVYLQMNSLKPEDTAVYYCAARYPSDYDYWGQGTQVTVSS | low polyreactivity |
| QVQLVESGGGLVQAGGSLRLSCAASGSTFPANAMGWYRQAPGKERELVATISWSGGRTYYADSVKGRFTISRDNAKNTVYLQMNSLKPEDTAVYYCAANGHGRVYFGGGNWGQGTQVTVSS | high polyreactivity |
| QVQLVESGGGLVQAGGSLRLSCAASGQTFPFYTKGWYRQAPGKERELVGAISRRGGSTYYADSVKGRFTISRDNAKYTVYLQMKSLKPEDTAVYYCAADKYSWYDYWGQGTQVTVSS | low polyreactivity |
| QVQLVESGGGLVQAGGSLRLSCAASGSTFWGNAMGWYRQAPGKERELVAAISSRGGSTYYADSVKGRFTISRDNAKNTVYLQMNSLKPEDTAVYYCNTLQSSHGSSQYDSWGQGTQVTVSS | low polyreactivity |
| QVQLVESGGGLVQAGGSLRLSCAASGSILKYYAMGWYRQAPGKERELVAAISSGGSTYYADSVKGRFTISRDNAKNTVYLQMNSLKPEDTAVYYCAAAWYGAKYIVLYDYWGQGTQVTVSS | low polyreactivity |
| QVQLVESGGGLVQAGGSLRLSCAASGSTFVRNAMGWYRQAPGKERELVAAISRSGGRTYYADSVKGRFTISRDNAKNTVYLQMNSLKPEDTAVYYCAADVYDAGVRYDYWGQGTQVTVSS | high polyreactivity |
| QVQLVESGGGLVQAGGSLRLSCAASGSTIVYNAMGWYRQAPGKEREFVAAISWSGGSTYYADSVKGRFTISRDNAKNTVYLQMNSLKPEDTAIYYCAATSRSNGFRYYYWGQGTQVTVSS | high polyreactivity |
| QVQLVESGGGSVQAGGSLRLSCSASGIIFWYYTMGRNRQAPGKERELVAAISCSSGITYYADSVKGRFTISRDNSKNTVYLQMNSLKPEDTAVYYCAARKFFWRSNYDYWGQGTQVTVSS | low polyreactivity |
| QVQLVESGGGLVQAGGSLRLSCAASGRIFVNYAMGWYRQAPGKERELVAAITSDGSTSYADSVKGRFTISRDNAKNTVYLQMNSLKPEDTAVYYCAKDFFEHSPVSHTYSSSNYDYWGQGTQVTVSS | low polyreactivity |
| QVQLVESGGGLVQAGGSLRLSCAASASISDSYAMGRYRQAPGKERELVAAITSGDSTYYADSVKGRFTISRDNAKNTLYLQMNSLKPEDTAVYYCAKRVSRGRGYGFTDWSEYDYWGQGTQVTVSS | low polyreactivity |
| QVQLQESGGGLVQAGGSLLSCAASGTISYYREMGWYRQAPGKERELVAGIGVGTITYYADSVKGRFTISRDNAKHTVYLQMNSLKPEDTAVYYCAAAYQEYDYHYYYWGQGTQVTVSS | low polyreactivity |
| QVQLVESGGGLVQAGGSLRLSCAASGRIFYIYTMGWYRQAPGKEREFVAGINWNGGSTYYADSVKGRFTISRDNAKNTVYLQMISLKPEDSEVYYCNADQYWDRYYYWGQGTQVTVSS | low polyreactivity |
| QVQLVESGGGLVQAGGSLRLSCAASGRTLIAYAMGWYRQAHGKEREFVAAIRADDGRTYYADSVKGRFTISRDNAKNTVYFQMNSLKPEDTAVYYCDTKADKRYRFGYWGQGTQVTVSS | high polyreactivity |
| QGQLVESGGGLDQAGGSLRLSCAASGSIFHGNAMGWYRQAPGKERELVAVISDGGYTDYADSVKGRFTISRDNAKNTVYLQMNSLKPEDTAGYYCNADYDTQYFYRNPIYYLSGYDYRGQGTQVTVSS | low polyreactivity |
| QVQLVESGGGLVQAGGSLRLSCAASGSTFLSYAMGWYRQAPGKERELVAAITSGGRTYYADSVKGRFTISRDNAKNTVYLQMNSLKPEDTAVYYCAAVTGRFGYWGQGTQVTVSS | high polyreactivity |
| QVQLVESGGGLVQAGGSLRLSCAASGFTFHYYTMGWYRQAPGKERELVASINYSGGRTYYADSVKGRFTISRDNAKNTVYLQMNSLKPEDTAVYYCNARYKSTYYYWGQGTQVTVSS | high polyreactivity |
| QVQLVESGGGLVQAGGSLRFSCAASGRIFPAYAMGWYRQAPGKEREWVDAISRRGGSTYYADTVKGRFTISRDNAKNTVYLQMNSLNPEDTAVYYCAKEVWDSLGYPHSGDYWGQGTQVTVSS | low polyreactivity |

| Sequence | polyreactivity (PSR sort gate) |
| --- | --- |
| QVQLVESGGGLVQAGGSLRLSCAPCGSIFSSYAMGWYRQAPGQDWELVAAISSGGCITYYADSVKGRFTISRDNAKNTVYLQMHSLKPEDTAVYYCNARVARSNYGWYYDWGQGTQVTVSS | high polyreactivity |
| QVQLVESGGGLVQAGGSLRLSCAASGSIFPINARGWYREAPGKERELVAVITSGGGGTYYADSVKGRFTISRDNAKNTVYLQMNCLTPEDTAVYYCAKRLSRKWQKFGYWGQGTQVTVSS | low polyreactivity |
| QVQLVESGGGLVQAGGSLRLSCAASGFTFVPYTMGWYRQAPGKERELVPRINTSGGGTYYADSVKGRFTISRDNAKNTVYLQMNSLKPEDTAVYYCAARRNYRAQPKTRWTGYYYWGQGTQVTVSS | high polyreactivity |
| QVQLVESGGGLVQAGGSLRLSCAASGRIFDYYDMGWYRQAPGKERELVAAISNGGSTYYADSVKGRFTISRDNAKNTVYLQMNCLKPEDTAVYYCNNRWYYQYGQSHVRWYDYWGQGTQVTVSS | high polyreactivity |
| QLQLQESGGGLVQSGGSLRLSCAASGTISFTRDMGWYRQAPGKEREFVASIDRGASTYYADSVKGRFTISRDNAKNTVYLQMNSLKPEDTAVYYRAFIAPFYSSFAYWGQGTQVTVSS | high polyreactivity |
| QVQLEESGGGLVQEGGSLRLICAASGRIFGSYVMGWYRQAPGKERELVAAISRRGGSTYYADSVKGRFTISRDNAKNTVYLQMNSLKTEVTAVYYCAAEFSPSSNPYDYWGQGTQVTVSS | high polyreactivity |
| QVQLVESGGGLVQAGGSLRLSCAASGFTLSKYAKGWYRPAPGKERELVAAITGSGVRTYYADSVKGRFTISRDYAKNSVYLELNSLKPEDTAVYYCATGTKKGRYRDELDCWGHGTQVTVSS | high polyreactivity |
| QVQLVESGGGLVQAGGSLRLSCAASGLIFTRNAMGWYRQAPGKERELVASISNSGGSTYYADSVKGRFTISRDNAKNTVYLQMNSLKPEDTAVYYCAAPTHLHGHGNQNEFYYWGQGTQVTVSS | low polyreactivity |
| QVQLVESGGGLVQAGGSLRLSCAASGRTFSVYTMGWYRQAPGKERELVASINWSGGRTYYADSVKGRFTISRDNAKNSVYLQMNSLKPEDTAVYYCAATGWRTLYDYWGQGTQVTVSS | high polyreactivity |
| QVQLVESGGGLVQAGGSLRLSCAASGITFWYYAMGWYRQAPGKERELVAAITGGDSTNYADSVKGRFTISRDNAKNTVYLQMNSLKPEDTAVYYCNAEGSYEGYDDYWGQGTQVTVSS | high polyreactivity |
| QVQLVESGGGLVQAGGSLRLSCGASGFTFSPYAMGWYRQAPGKERELVAVISGGGSTYYADSVKGRFTISRDNAKNTVYLQMNSLKPEDTAGYYCAKRFYRSYYWGQGTQVTVSS | high polyreactivity |
| QVQLVESGGGLVQAGGSLRLSCAASGSIFGRYAMGWYRQAPGKERELVAAISRTGVSTYYADSVKGRFTISRDNAKNTVYLQMNSLKPEDTAVYYCNAVRLSWQNTYYYWGQGTQVTVSS | high polyreactivity |
| QVQLVESGGGLVQAGGSLRLSCAASGSIFHRYAMGWYRQAPGKERELVAAISWRGSSTYYADSVKGRFTISRDNAKNTVYLQMNSLKPEDTAVYYCNARGGSRRRYDYWGQGTQVTVSS | high polyreactivity |
| QVQLVASGGGLVQAGGSLRLSCAASGLIIRYYAMGWYRQAPGKEREFVAAITWNGGSTYADSVKGRFTISRDNAKNTVNLQMNSLIPEDTAVYYCAADLSYWDDFDYSGQGTQVTVSS | low polyreactivity |
| QVQLVESGGGLVQAGGSLRLSCAASGFTSWDNDMGWYRQAPGKERELVAAMSRGGSTNYADSVKGRFTISRDNAKNTVYLQMNSLKPEDTAVYYCAAGSYAGFAVIGYYYWGQGTQVTVSS | low polyreactivity |
| QVQLGESGGGLVQAGGSLRLSCAASGRIFNVYAMGWYRQAPGKERELVAAISTGSPTYYADSVKGRFTISRDNAKNTVYLQMNSLKPEDTAVYYCATGYIHGDYWSFRHQYYYWGQGTQVTVSS | low polyreactivity |
| QVQLVESGGGLVQAGGTLRLSCAASGRIFDGNTMGWDRQAPGKERELVAAIRSRGDRTYYADSVKGRFTISRDNAKNTVYLQMNSLKPEDTAVYYCAAQPSWYKPKGSWFEKGLYDYWGQGTQVTVSS | low polyreactivity |
| QVQLVESGGGLVQAGGSLRLSCAASGLTIWYYAMGWSRQAPGKEREFVAAITSRGGDTYYADSVKGRFTISRDNAKNTVYLQMNSLKPEDTAVYYCAVRPRYYGTYRYYYWGQGTQVTVSS | high polyreactivity |
| QVQLVESGGGLVQAGGSLRLSCAASGSTFSRNAMGWYRQAPGKERELVATISRSGRTNYADSVKGRFTISRDNAKNTVYLQMNSLKPEDTAVSYCNAGYRRSYEYWGQGTQVTVSS | low polyreactivity |
| QVQLVESGGGLVQAGGSLRLSCAASGSIFYYYAMGWYRQAPGTERELVAAIYNGGSTYYADSVKGRFTISRDNAKNTVYLQMNSLKPEDTAVYYCNAGYSYWYRDLGYDSWGQGTQVTVSS | low polyreactivity |
| QVQLVESGGGLVQAGGSLRLSCAATGRTFRLYAMGWYRQAPGKERELVAAITRGGRTNYADSVKGRFTISRDNAKNTVYLQMNSLKPEDTAVYYCAARYRLPIPGTQYEYWGQGTQVTVSS | low polyreactivity |
